From PMC7316351, “Cancer-associated mutations in the iron-sulfur domain of FANCJ affect G-quadruplex metabolism”

Experiments:
FANCJ M299I = target: T1, FANCJ M299I (UniProt Q9BX63 1-1249, M299I); assay: EMSA; 10/40/70 nM protein, 5 nM DNA, no ATP; wild-type level of binding; EMSA: 15 mM Na-phosphate pH 7.4, 45 mM NaCl, 3% glycerol, 40 mM Tris-HCl pH 7.4, 25 mM KCl, 100 ng/ul BSA, 2 mM DTT, 0.1 mM EDTA; 30 min at 25 C; 5% PAGE in 1x; conditions: protein: recombinant; tags: N-terminal Flag; label: 5'-FAM on strand 1
T1 sequence: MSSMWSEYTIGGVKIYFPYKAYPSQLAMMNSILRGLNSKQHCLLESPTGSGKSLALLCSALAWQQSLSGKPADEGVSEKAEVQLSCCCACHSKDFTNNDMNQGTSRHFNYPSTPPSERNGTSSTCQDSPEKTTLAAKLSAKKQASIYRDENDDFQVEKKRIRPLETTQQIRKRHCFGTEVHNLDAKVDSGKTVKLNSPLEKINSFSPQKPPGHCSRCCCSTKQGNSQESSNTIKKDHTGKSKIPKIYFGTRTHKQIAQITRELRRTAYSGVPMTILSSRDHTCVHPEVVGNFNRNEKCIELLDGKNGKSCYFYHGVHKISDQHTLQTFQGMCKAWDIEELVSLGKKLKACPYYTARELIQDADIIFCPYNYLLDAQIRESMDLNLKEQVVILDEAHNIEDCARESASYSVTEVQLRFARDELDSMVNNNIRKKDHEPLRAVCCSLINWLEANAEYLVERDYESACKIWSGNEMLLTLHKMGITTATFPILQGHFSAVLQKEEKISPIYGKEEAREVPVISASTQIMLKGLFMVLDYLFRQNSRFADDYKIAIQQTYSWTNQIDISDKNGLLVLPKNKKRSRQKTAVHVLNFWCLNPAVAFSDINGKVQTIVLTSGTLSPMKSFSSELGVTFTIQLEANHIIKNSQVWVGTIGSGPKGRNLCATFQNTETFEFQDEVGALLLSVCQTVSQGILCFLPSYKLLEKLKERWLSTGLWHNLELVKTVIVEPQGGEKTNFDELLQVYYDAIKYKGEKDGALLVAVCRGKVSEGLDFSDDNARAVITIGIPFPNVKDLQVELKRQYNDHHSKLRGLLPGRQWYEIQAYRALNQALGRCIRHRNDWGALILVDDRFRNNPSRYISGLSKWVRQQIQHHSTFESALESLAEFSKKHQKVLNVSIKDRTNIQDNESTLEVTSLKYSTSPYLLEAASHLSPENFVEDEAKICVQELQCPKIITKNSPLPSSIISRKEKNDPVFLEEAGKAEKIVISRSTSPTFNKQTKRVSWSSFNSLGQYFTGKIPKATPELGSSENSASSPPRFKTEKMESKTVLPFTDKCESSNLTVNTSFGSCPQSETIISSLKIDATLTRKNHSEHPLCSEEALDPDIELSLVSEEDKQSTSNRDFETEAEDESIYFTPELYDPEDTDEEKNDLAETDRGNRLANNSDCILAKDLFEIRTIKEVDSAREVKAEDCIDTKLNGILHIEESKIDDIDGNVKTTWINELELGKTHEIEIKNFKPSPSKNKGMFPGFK

FANCJ K52R = target: T2, FANCJ K52R (UniProt Q9BX63 1-1249, K52R); assay: EMSA; 10/40/70 nM protein, 5 nM DNA, no ATP; EMSA: 15 mM Na-phosphate pH 7.4, 45 mM NaCl, 3% glycerol, 40 mM Tris-HCl pH 7.4, 25 mM KCl, 100 ng/ul BSA, 2 mM DTT, 0.1 mM EDTA; 30 min at 25 C; 5% PAGE in 1x; conditions: protein: recombinant; tags: N-terminal Flag; label: 5'-FAM on strand 1
T2 sequence: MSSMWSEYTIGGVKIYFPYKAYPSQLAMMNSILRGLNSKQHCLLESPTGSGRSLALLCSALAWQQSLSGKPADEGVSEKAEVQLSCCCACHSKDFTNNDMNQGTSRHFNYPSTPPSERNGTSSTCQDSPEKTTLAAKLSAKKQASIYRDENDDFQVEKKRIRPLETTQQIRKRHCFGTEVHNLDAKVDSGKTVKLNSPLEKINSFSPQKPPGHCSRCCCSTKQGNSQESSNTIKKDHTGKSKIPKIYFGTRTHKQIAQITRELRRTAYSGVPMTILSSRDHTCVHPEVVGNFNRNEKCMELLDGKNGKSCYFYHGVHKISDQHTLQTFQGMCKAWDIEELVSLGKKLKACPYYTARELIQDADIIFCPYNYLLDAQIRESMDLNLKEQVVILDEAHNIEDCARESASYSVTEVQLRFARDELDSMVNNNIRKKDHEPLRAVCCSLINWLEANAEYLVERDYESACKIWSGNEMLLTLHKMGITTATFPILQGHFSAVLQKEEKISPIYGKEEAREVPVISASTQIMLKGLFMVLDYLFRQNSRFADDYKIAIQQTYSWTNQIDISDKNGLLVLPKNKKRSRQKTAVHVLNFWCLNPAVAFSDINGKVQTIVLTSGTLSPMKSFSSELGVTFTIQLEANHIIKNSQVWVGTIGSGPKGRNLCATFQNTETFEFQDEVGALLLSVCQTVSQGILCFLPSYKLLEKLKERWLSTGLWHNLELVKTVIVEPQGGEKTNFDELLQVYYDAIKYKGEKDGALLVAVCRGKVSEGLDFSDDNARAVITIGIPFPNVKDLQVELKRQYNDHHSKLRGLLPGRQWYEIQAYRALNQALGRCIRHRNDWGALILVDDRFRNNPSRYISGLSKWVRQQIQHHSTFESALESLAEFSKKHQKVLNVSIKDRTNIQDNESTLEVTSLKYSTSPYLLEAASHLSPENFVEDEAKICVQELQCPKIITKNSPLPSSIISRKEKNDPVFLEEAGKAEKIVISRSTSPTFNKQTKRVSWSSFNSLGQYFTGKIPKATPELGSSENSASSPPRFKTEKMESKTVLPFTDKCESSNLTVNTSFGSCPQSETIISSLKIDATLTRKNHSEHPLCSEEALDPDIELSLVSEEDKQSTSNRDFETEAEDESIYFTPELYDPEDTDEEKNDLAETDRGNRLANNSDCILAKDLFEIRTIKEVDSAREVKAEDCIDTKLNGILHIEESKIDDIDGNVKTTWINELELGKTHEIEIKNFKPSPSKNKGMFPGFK

B1: Y-structure (XO1/sDO1) (dsDNA)
DNA 1: GACGCTGCCGAATTCTACCAGTGCCTTGCTAGGACATCTTTG
DNA 2: TTTTTTTTTTTTTTTTTTTTTTTTTTTTTTTTTTTTGGTAGAATTCGGCAGCGT
Question: Does B1 bind (FANCJ M299I)?
Answer: Result: binds

Question: Does B1 bind (FANCJ K52R)?
Answer: Result: binds
